Patent publication US20130209396A1 (ELEVEN BIOTHERAPEUTICS, published 2013)
Residue numbers refer to the chain shown, from its start. Values belong to the binder of their own block, whether it stands above or below them.

Key:
[1] = biological target: T1, soluble recombinant human IL-1RI (corresponding to the extracellular domain of IL-1RI) (human, UniProt P14778 18-336); test: SPR (Reichert SR7000DC), soluble human IL-1RI; end of range tied to P04 by Table 7
T1 construct: extracellular domain; also called interleukin-1 receptor I; immobilized soluble IL-1RI
T1 sequence (looked up): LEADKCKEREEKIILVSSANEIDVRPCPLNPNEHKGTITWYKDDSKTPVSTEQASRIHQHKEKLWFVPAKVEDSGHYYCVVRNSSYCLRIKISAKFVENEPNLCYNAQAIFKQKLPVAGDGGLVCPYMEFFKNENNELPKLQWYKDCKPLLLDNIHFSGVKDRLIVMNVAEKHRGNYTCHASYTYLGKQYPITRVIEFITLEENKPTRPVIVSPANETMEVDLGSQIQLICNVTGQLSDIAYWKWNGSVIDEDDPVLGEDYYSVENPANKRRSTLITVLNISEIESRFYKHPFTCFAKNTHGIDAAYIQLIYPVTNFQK
Method: (§1) The binding properties of proteins for soluble recombinant human IL-1RI (corresponding to the extracellular domain of IL-1RI) were evaluated using surface plasmon resonance with a Reichert SR7000DC Dual Channel SPR system. Binding was evaluated in phosphate buffered saline with 0.005% Tween 20. […] Thus, the P01 protein bound to IL-1RI with a greater affinity than did IL-1β under similar conditions.
(§2) See for example FIGS. 9C and 9D and Table 7 below.

[2] = biological target: T1, soluble recombinant human IL-1RI …; test: SPR (Reichert SR7000DC), soluble human IL-1RI; end of range tied to P03 (highest Kd) by Table 7
Method: as §1, §2

[3] = biological target: T2, IL-1RI on HEK-Blue IL-1β responsive cells (UniProt P14778 18-569); test: cell-based or functional assay
T2 sequence (looked up): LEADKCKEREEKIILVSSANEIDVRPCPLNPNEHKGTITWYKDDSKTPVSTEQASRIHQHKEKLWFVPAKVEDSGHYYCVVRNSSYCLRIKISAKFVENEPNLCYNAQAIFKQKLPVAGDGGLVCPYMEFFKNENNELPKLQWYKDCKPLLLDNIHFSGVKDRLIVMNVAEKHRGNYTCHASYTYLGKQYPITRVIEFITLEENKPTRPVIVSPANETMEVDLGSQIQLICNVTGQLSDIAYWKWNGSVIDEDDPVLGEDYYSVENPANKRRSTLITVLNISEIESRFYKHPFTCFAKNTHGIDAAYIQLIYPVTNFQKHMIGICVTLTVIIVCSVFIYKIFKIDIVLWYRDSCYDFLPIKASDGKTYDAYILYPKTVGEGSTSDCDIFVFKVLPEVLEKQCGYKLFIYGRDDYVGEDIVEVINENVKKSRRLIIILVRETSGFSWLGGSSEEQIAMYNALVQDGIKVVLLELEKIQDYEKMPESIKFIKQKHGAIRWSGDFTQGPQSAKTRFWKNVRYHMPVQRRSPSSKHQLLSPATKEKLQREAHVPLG

[4] = biological target: T1, soluble recombinant human IL-1RI …; test: SPR (Reichert SR7000DC), soluble human IL-1RI; end of range tied to P02 (lowest Kd) by Table 7
Method: as §1, §2

Kd [1]: 1.7 nM
kon [1]: 30000 M⁻¹ s⁻¹
B1: P04 (designed binder)
chain: APVRSLAFRIWDVNQKTFYLRNNQLVAGYLQGPNVNLEEKFSMSFVQGEESNDKIPVALGLKEKNLYLSCVLKDDKPTLQLESVDPKNYPKKKMEKRFVFNKIEINNKLEFESAACPGWFLCTAMEADQPVSLTNMPDEGVMVTKFTMQFVSS
notes: Chimeric IL-1β/IL-1Ra cytokine domain expressed in E. coli; Both hexa-histidine tagged and untagged forms were made; also called P04 domain

koff [2]: 0.001 s⁻¹
B2: P03 (designed binder)
chain: B1 chain with N101I, K102R, I103S, E104D, I105S, N106G, N107P, K108T, L109T, E110S
notes: Chimeric IL-1β/IL-1Ra cytokine domain expressed in E. coli; Both hexa-histidine tagged and untagged forms were made; also called P03 domain

IC50 of antagonism of IL-1β activity, SEAP reporter in HEK-Blue IL-1β cells [3]: < 5 ng/mL
B3: P05 (designed binder)
chain: B1 chain with A7N, F8C, A115Q, C116F, G118N, T147Y

koff [4]: 2e-05 s⁻¹
B4: P02 (designed binder)
chain: APVRSLAFRIWDVNQKTFYLRNNQLVAGYLQGPNVNLEEKIDVSFVQGEESNDKIPVALGIHGGKMCLSCVKSGDETRLQLEAVDPKNYPKKKMEKRFVFNKIEINNKLSFESAACPGWFLCTAMEADQPVSLTNMPDEGVMVTKFYMQFVSS
notes: Chimeric IL-1β/IL-1Ra cytokine domain expressed in E. coli; also called P02 domain
